Results from publication PMC12578325.

Target: Bluetongue virus serotype 1 (BTV-1) outer capsid protein VP2
Test: Co-IP with anti-NS3 antibody, densitometry of VP2 band
Conditions: parent: est. 1.0; read off a plot

| Substance | ratio to parent (relative fold change) |
| --- | --- |
| Bluetongue virus serotype 1 (BTV-1) non-structural glycoprotein NS3, wild type K196A; K197A; E198A | 0.56 |
| Bluetongue virus serotype 1 (BTV-1) non-structural glycoprotein NS3, wild type N150A | 0.61 |
